In US20150087577A1 (POLYPHOR, published 2015):
*1 amine or outer side, *2 acyl side, *3 side chain or, on linkers, in order; H or OH if unused. Bridges are numbered along the chain shown (N, C = ends). [ ]: non-standard residue; d: D form. IPegDab = L-2-amino-4{2-[2-(2-methoxy-ethoxy)-ethoxy]-acetylamino}-butyric acid, COCCOCCOCC(=O)NCC[C@H](N[*:1])C(=O)[*:2]; N(2-Aminoethyl)Gly = O=C(CN(CCN[*:3])[*:1])[*:2]; 2Nal = N[C@@H](Cc1ccc2ccccc2c1)C(=O)O; Cit = NC(=O)NCCC[C@H](N)C(=O)O; Dab = NCC[C@H](N)C(=O)O

B1: Example 146 (peptide)
peptide: cyclo(YRTCRG[dP]RRYCY[Cit]K[dP]P)
modifications: disulfide 4-11
SMILES: C[C@@H](O)[C@@H]1NC(=O)[C@H](CCCNC(=N)N)NC(=O)[C@H](Cc2ccc(O)cc2)NC(=O)[C@@H]2CCCN2C(=O)[C@H]2CCCN2C(=O)[C@H](CCCCN)NC(=O)[C@H](CCCNC(N)=O)NC(=O)[C@H](Cc2ccc(O)cc2)NC(=O)[C@@H]2CSSC[C@H](NC1=O)C(=O)N[C@@H](CCCNC(=N)N)C(=O)NCC(=O)N1CCC[C@@H]1C(=O)N[C@@H](CCCNC(=N)N)C(=O)N[C@@H](CCCNC(=N)N)C(=O)N[C@@H](Cc1ccc(O)cc1)C(=O)N2
B2: Example 142 (peptide)
peptide: cyclo(YR[Cit]CRG[dP][IPegDab]RWCY[Cit]K[dP]P)
modifications: disulfide 4-11
SMILES: COCCOCCOCC(=O)NCC[C@@H]1NC(=O)[C@H]2CCCN2C(=O)CNC(=O)[C@H](CCCNC(=N)N)NC(=O)[C@@H]2CSSC[C@H](NC(=O)[C@H](Cc3c[nH]c4ccccc34)NC(=O)[C@H](CCCNC(=N)N)NC1=O)C(=O)N[C@@H](Cc1ccc(O)cc1)C(=O)N[C@@H](CCCNC(N)=O)C(=O)N[C@@H](CCCCN)C(=O)N1CCC[C@@H]1C(=O)N1CCC[C@H]1C(=O)N[C@@H](Cc1ccc(O)cc1)C(=O)N[C@@H](CCCNC(=N)N)C(=O)N[C@@H](CCCNC(N)=O)C(=O)N2
B3: Example 1 (peptide)
peptide: cyclo(YR[Cit]VR[dR]R[2Nal]FY[Cit]K[dP]P)
SMILES: CC(C)[C@@H]1NC(=O)[C@H](CCCNC(N)=O)NC(=O)[C@H](CCCNC(=N)N)NC(=O)[C@H](Cc2ccc(O)cc2)NC(=O)[C@@H]2CCCN2C(=O)[C@H]2CCCN2C(=O)[C@H](CCCCN)NC(=O)[C@H](CCCNC(N)=O)NC(=O)[C@H](Cc2ccc(O)cc2)NC(=O)[C@H](Cc2ccccc2)NC(=O)[C@H](Cc2ccc3ccccc3c2)NC(=O)[C@H](CCCNC(=N)N)NC(=O)[C@@H](CCCNC(=N)N)NC(=O)[C@H](CCCNC(=N)N)NC1=O
B4: Example 148 (peptide)
peptide: cyclo(YRYCRG[dP]RRYCYQK[dP]P)
modifications: disulfide 4-11
SMILES: N=C(N)NCCC[C@@H]1NC(=O)[C@@H]2CSSC[C@H](NC(=O)[C@H](Cc3ccc(O)cc3)NC(=O)[C@H](CCCNC(=N)N)NC(=O)[C@H](CCCNC(=N)N)NC(=O)[C@H]3CCCN3C(=O)CNC1=O)C(=O)N[C@@H](Cc1ccc(O)cc1)C(=O)N[C@@H](CCC(N)=O)C(=O)N[C@@H](CCCCN)C(=O)N1CCC[C@@H]1C(=O)N1CCC[C@H]1C(=O)N[C@@H](Cc1ccc(O)cc1)C(=O)N[C@@H](CCCNC(=N)N)C(=O)N[C@@H](Cc1ccc(O)cc1)C(=O)N2
B5: Example 145 (peptide)
peptide: cyclo(YRTCRG[dP]RRYCYQK[dP]P)
modifications: disulfide 4-11
SMILES: C[C@@H](O)[C@@H]1NC(=O)[C@H](CCCNC(=N)N)NC(=O)[C@H](Cc2ccc(O)cc2)NC(=O)[C@@H]2CCCN2C(=O)[C@H]2CCCN2C(=O)[C@H](CCCCN)NC(=O)[C@H](CCC(N)=O)NC(=O)[C@H](Cc2ccc(O)cc2)NC(=O)[C@@H]2CSSC[C@H](NC1=O)C(=O)N[C@@H](CCCNC(=N)N)C(=O)NCC(=O)N1CCC[C@@H]1C(=O)N[C@@H](CCCNC(=N)N)C(=O)N[C@@H](CCCNC(=N)N)C(=O)N[C@@H](Cc1ccc(O)cc1)C(=O)N2
B6: Example 24 (peptide)
peptide: cyclo(YR[Cit]FRFPRR[2Nal]VY[Cit]K[dP]P)
SMILES: CC(C)[C@@H]1NC(=O)[C@H](Cc2ccc3ccccc3c2)NC(=O)[C@H](CCCNC(=N)N)NC(=O)[C@H](CCCNC(=N)N)NC(=O)[C@@H]2CCCN2C(=O)[C@H](Cc2ccccc2)NC(=O)[C@H](CCCNC(=N)N)NC(=O)[C@H](Cc2ccccc2)NC(=O)[C@H](CCCNC(N)=O)NC(=O)[C@H](CCCNC(=N)N)NC(=O)[C@H](Cc2ccc(O)cc2)NC(=O)[C@@H]2CCCN2C(=O)[C@H]2CCCN2C(=O)[C@H](CCCCN)NC(=O)[C@H](CCCNC(N)=O)NC(=O)[C@H](Cc2ccc(O)cc2)NC1=O
B7: Example 138 (peptide)
peptide: cyclo(YR[Cit]C[N(2-Aminoethyl)Gly]G[dP]RR[2Nal]CY[Cit]K[dP]P)
modifications: disulfide 4-11
SMILES: N=C(N)NCCC[C@@H]1NC(=O)[C@H](CCCNC(=N)N)NC(=O)[C@H]2CCCN2C(=O)CNC(=O)CN(CCN)C(=O)[C@@H]2CSSC[C@H](NC(=O)[C@H](Cc3ccc4ccccc4c3)NC1=O)C(=O)N[C@@H](Cc1ccc(O)cc1)C(=O)N[C@@H](CCCNC(N)=O)C(=O)N[C@@H](CCCCN)C(=O)N1CCC[C@@H]1C(=O)N1CCC[C@H]1C(=O)N[C@@H](Cc1ccc(O)cc1)C(=O)N[C@@H](CCCNC(=N)N)C(=O)N[C@@H](CCCNC(N)=O)C(=O)N2
B8: Example 143 (peptide)
peptide: cyclo(YR[Cit]CRA[dP]RRWCY[Cit]K[dP]P)
modifications: disulfide 4-11
SMILES: C[C@@H]1NC(=O)[C@H](CCCNC(=N)N)NC(=O)[C@@H]2CSSC[C@H](NC(=O)[C@H](Cc3c[nH]c4ccccc34)NC(=O)[C@H](CCCNC(=N)N)NC(=O)[C@H](CCCNC(=N)N)NC(=O)[C@H]3CCCN3C1=O)C(=O)N[C@@H](Cc1ccc(O)cc1)C(=O)N[C@@H](CCCNC(N)=O)C(=O)N[C@@H](CCCCN)C(=O)N1CCC[C@@H]1C(=O)N1CCC[C@H]1C(=O)N[C@@H](Cc1ccc(O)cc1)C(=O)N[C@@H](CCCNC(=N)N)C(=O)N[C@@H](CCCNC(N)=O)C(=O)N2
B9: Example 137 (peptide)
peptide: cyclo(YR[Cit]CRG[dP]HRWCY[Cit]K[dP]P)
modifications: disulfide 4-11
SMILES: N=C(N)NCCC[C@@H]1NC(=O)[C@@H]2CSSC[C@H](NC(=O)[C@H](Cc3c[nH]c4ccccc34)NC(=O)[C@H](CCCNC(=N)N)NC(=O)[C@H](Cc3c[nH]cn3)NC(=O)[C@H]3CCCN3C(=O)CNC1=O)C(=O)N[C@@H](Cc1ccc(O)cc1)C(=O)N[C@@H](CCCNC(N)=O)C(=O)N[C@@H](CCCCN)C(=O)N1CCC[C@@H]1C(=O)N1CCC[C@H]1C(=O)N[C@@H](Cc1ccc(O)cc1)C(=O)N[C@@H](CCCNC(=N)N)C(=O)N[C@@H](CCCNC(N)=O)C(=O)N2
B10: Example 135 (peptide)
peptide: cyclo(YR[Cit]CRG[dP][Dab]R[2Nal]CY[Cit]K[dP]P)
modifications: disulfide 4-11
SMILES: N=C(N)NCCC[C@@H]1NC(=O)[C@@H]2CSSC[C@H](NC(=O)[C@H](Cc3ccc4ccccc4c3)NC(=O)[C@H](CCCNC(=N)N)NC(=O)[C@H](CCN)NC(=O)[C@H]3CCCN3C(=O)CNC1=O)C(=O)N[C@@H](Cc1ccc(O)cc1)C(=O)N[C@@H](CCCNC(N)=O)C(=O)N[C@@H](CCCCN)C(=O)N1CCC[C@@H]1C(=O)N1CCC[C@H]1C(=O)N[C@@H](Cc1ccc(O)cc1)C(=O)N[C@@H](CCCNC(=N)N)C(=O)N[C@@H](CCCNC(N)=O)C(=O)N2
B11: Example 144 (peptide)
peptide: cyclo(LR[Cit]CRG[dP]RR[2Nal]CYQK[dP]P)
modifications: disulfide 4-11
SMILES: CC(C)C[C@@H]1NC(=O)[C@@H]2CCCN2C(=O)[C@H]2CCCN2C(=O)[C@H](CCCCN)NC(=O)[C@H](CCC(N)=O)NC(=O)[C@H](Cc2ccc(O)cc2)NC(=O)[C@@H]2CSSC[C@H](NC(=O)[C@H](CCCNC(N)=O)NC(=O)[C@H](CCCNC(=N)N)NC1=O)C(=O)N[C@@H](CCCNC(=N)N)C(=O)NCC(=O)N1CCC[C@@H]1C(=O)N[C@@H](CCCNC(=N)N)C(=O)N[C@@H](CCCNC(=N)N)C(=O)N[C@@H](Cc1ccc3ccccc3c1)C(=O)N2
B12: Example 147 (peptide)
peptide: cyclo(YRICRG[dP]RRYCYQK[dP]P)
modifications: disulfide 4-11
SMILES: CC[C@H](C)[C@@H]1NC(=O)[C@H](CCCNC(=N)N)NC(=O)[C@H](Cc2ccc(O)cc2)NC(=O)[C@@H]2CCCN2C(=O)[C@H]2CCCN2C(=O)[C@H](CCCCN)NC(=O)[C@H](CCC(N)=O)NC(=O)[C@H](Cc2ccc(O)cc2)NC(=O)[C@@H]2CSSC[C@H](NC1=O)C(=O)N[C@@H](CCCNC(=N)N)C(=O)NCC(=O)N1CCC[C@@H]1C(=O)N[C@@H](CCCNC(=N)N)C(=O)N[C@@H](CCCNC(=N)N)C(=O)N[C@@H](Cc1ccc(O)cc1)C(=O)N2
B13: Example 136 (peptide)
peptide: cyclo(YR[Cit]CRG[dP][Cit]RWCY[Cit]K[dP]P)
modifications: disulfide 4-11
SMILES: N=C(N)NCCC[C@@H]1NC(=O)[C@@H]2CSSC[C@H](NC(=O)[C@H](Cc3c[nH]c4ccccc34)NC(=O)[C@H](CCCNC(=N)N)NC(=O)[C@H](CCCNC(N)=O)NC(=O)[C@H]3CCCN3C(=O)CNC1=O)C(=O)N[C@@H](Cc1ccc(O)cc1)C(=O)N[C@@H](CCCNC(N)=O)C(=O)N[C@@H](CCCCN)C(=O)N1CCC[C@@H]1C(=O)N1CCC[C@H]1C(=O)N[C@@H](Cc1ccc(O)cc1)C(=O)N[C@@H](CCCNC(=N)N)C(=O)N[C@@H](CCCNC(N)=O)C(=O)N2
B14: Example 25 (peptide)
peptide: cyclo(YR[Cit]VR[Cit][dP]RR[2Nal]VY[Cit]K[dP]P)
SMILES: CC(C)[C@@H]1NC(=O)[C@H](Cc2ccc3ccccc3c2)NC(=O)[C@H](CCCNC(=N)N)NC(=O)[C@H](CCCNC(=N)N)NC(=O)[C@H]2CCCN2C(=O)[C@H](CCCNC(N)=O)NC(=O)[C@H](CCCNC(=N)N)NC(=O)[C@H](C(C)C)NC(=O)[C@H](CCCNC(N)=O)NC(=O)[C@H](CCCNC(=N)N)NC(=O)[C@H](Cc2ccc(O)cc2)NC(=O)[C@@H]2CCCN2C(=O)[C@H]2CCCN2C(=O)[C@H](CCCCN)NC(=O)[C@H](CCCNC(N)=O)NC(=O)[C@H](Cc2ccc(O)cc2)NC1=O

Each binder was assayed against human CXCR4 (human, UniProt P61073 1-352) (assay: cell-based or functional assay).
Sequence of human CXCR4 (P61073 whole entry): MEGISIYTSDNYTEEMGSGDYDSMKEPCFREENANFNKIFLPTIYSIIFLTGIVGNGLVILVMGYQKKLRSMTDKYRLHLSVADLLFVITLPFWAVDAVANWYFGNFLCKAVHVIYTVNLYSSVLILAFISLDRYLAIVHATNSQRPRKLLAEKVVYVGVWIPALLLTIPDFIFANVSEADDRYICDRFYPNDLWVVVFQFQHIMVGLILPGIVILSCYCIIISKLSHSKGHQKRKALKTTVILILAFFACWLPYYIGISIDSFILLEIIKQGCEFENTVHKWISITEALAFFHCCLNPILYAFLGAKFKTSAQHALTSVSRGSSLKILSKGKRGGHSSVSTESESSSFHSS

Binder	IC50 (nM) Ca2+ assay (method 2) [nM]	IC50 (nM) Ca2+ assay (method 1) [nM]
B1	0.24	–
B2	96.9	–
B3	–	2280
B4	0.65	–
B5	0.38	–
B6	–	850
B7	63	–
B8	0.9	–
B9	1.28	–
B10	4.7	–
B11	0.18	–
B12	0.17	–
B13	4.1	–
B14	–	1000
